The values that follow come from patent publication US6858578.

Values joined by “and” are separate entries in the source; they are usually repeats but may differ in a detail not shown here. Identical values can stand only once.

The assay deals with LDLR/TF chimeric protein with amino acids 1-374 of mature human LDLR fused to amino acids 20-698 of human transferrin (encoded by pEFBOS/LDLrTF1.S) (human). The assay is described as follows: microplate assay: chimeric protein (13.3 nM) held by coated HTF-14, LDL 0.5-50 µg/ml, detected with sheep anti-human LDL; the signal at 50 µg/ml is taken as the maximum.
Chain of LDLR/TF chimeric protein with amino acids 1-374 of mature human LDLR fused to amino acids 20-698 of human transferrin (encoded by pEFBOS/LDLrTF1.S) (human) (chain, as listed by the source mutant): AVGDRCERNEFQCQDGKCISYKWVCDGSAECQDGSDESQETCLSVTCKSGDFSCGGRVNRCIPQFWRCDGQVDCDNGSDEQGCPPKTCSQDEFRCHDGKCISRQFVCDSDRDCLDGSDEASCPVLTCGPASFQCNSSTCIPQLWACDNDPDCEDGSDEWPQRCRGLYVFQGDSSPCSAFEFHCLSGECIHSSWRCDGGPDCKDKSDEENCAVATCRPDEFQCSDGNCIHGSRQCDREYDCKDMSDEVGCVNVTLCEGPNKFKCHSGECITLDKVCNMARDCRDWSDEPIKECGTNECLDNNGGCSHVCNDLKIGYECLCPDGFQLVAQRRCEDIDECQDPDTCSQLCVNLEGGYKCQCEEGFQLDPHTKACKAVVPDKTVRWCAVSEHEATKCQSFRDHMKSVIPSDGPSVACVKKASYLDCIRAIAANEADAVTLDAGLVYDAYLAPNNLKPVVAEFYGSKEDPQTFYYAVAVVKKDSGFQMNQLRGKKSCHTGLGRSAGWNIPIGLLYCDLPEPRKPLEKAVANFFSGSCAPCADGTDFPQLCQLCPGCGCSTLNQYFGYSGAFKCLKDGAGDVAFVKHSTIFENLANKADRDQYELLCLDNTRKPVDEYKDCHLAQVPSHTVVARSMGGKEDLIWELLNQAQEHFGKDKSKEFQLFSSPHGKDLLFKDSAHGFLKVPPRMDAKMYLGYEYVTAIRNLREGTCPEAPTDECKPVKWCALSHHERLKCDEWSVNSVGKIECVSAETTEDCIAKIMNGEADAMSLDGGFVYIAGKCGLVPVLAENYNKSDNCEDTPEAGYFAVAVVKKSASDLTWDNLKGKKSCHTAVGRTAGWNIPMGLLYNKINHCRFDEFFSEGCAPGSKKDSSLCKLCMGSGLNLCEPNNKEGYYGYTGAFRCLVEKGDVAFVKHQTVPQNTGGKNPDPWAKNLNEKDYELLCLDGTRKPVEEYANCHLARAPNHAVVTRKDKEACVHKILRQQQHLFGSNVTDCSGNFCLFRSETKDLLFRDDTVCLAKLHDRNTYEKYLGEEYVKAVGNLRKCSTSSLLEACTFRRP

Usually EC50 stands for the midpoint of the concentration-response curve. Low values mean an effect from little substance, high ones a need for much substance. On to “human LDL (low density lipoprotein particle carrying one molecule of apolipoprotein B-100), P04114 28-4563”, for which the EC50 is 1.6 µg/mL and 3.1 nM.
